According to patent US5789538:

Molecular target: Zif268 finger 1 variant phage pool, CCTG selection round 5 finger 1 positions -1, 2, 3, 6 randomized (four NNS codons), pool (UniProt P08046)
Assay: SELEX
Conditions: [none], phage display pool, no enrichment, 0.45 M NaCl washes, 10 uM ZnCl2, 5 mM MgCl2

## CTGAGCGTGGCCTGAGTGATCGATC / CACTCAGGCCACGCTCAG [CCTG duplex]
  activity (% phage retention): < 0.001
